Data published in patent publication US20180023057A1.

Target: E-cadherin on human iPS cells (TkDN4-M) (human) (UniProt P12830)
Test: cell-based or functional assay

Sequence of E-cadherin on human iPS cells (TkDN4-M) (human) (P12830 155-882 limits assumed): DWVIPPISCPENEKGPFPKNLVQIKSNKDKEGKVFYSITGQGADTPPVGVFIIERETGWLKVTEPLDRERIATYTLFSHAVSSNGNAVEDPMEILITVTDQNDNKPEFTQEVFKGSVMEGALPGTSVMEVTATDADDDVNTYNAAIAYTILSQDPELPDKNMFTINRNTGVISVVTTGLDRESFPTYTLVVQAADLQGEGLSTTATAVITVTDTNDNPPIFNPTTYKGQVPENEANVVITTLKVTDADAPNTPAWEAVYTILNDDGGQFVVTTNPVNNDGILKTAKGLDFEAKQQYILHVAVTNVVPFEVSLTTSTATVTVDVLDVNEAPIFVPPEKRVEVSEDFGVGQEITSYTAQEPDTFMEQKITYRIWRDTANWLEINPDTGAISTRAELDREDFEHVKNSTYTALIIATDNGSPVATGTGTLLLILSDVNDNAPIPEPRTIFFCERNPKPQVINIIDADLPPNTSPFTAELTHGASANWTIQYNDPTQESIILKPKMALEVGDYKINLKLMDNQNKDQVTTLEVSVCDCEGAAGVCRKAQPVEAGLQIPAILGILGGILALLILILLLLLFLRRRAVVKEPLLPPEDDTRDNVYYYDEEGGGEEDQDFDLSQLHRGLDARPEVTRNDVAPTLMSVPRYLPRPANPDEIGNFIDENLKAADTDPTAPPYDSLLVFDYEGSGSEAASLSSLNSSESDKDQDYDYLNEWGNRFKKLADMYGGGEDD

- diameter of hiPS cell aggregates on Day 5 of culture in Essential 8, E-cadherin-Fc 50 or 100 µg/ml for the first 48 hours: 500 µm
- sizes of hiPS cell aggregates 48 hours after the E-cadherin-Fc treatment, 5 µg/ml (without E-cadherin-Fc: 1000 to 3000 µm): 300 to 700 µm
- sizes of hiPS cell aggregates 48 hours after the E-cadherin-Fc treatment, 10 µg/ml: 200 to 400 µm
- sizes of hiPS cell aggregates 48 hours after the E-cadherin-Fc treatment, 20 µg/ml: 100 to 500 µm
- sizes of hiPS cell aggregates 48 hours after the E-cadherin-Fc treatment, 50 µg/ml: 100 to 300 µm
- sizes of hiPS cell aggregates 48 hours after the E-cadherin-Fc treatment, 100 µg/ml: 150 to 700 µm
B1: E-cadherin-Fc fusion protein (Fc fusion, not shown: a dimerising Fc or GST)
chain: DWVIPPISCPENEKGEFPKNLVQIKSNRDKETKVFYSITGQGADKPPVGVFIIERETGWLKVTQPLDREAIAKYILYSHAVSSNGEAVEDPMEIVITVTDQNDNRPEFTQPVFEGFVAEGAVPGTSVMKVSATDADDDVNTYNAAIAYTIVSQDPELPHKNMFTVNRDTGVISVLTSGLDRESYPTYTLVVQAADLQGEGLSTTAKAVITVKDINDNAPVFNPSTYQGQVPENEVNARIATLKVTDDDAPNTPAWKAVYTVVNDPDQQFVVVTDPTTNDGILKTAKGLDFEAKQQYILHVRVENEEPFEGSLVPSTATVTVDVVDVNEAPIFMPAERRVEVPEDFGVGQEITSYTAREPDTFMDQKITYRIWRDTANWLEINPETGAIFTRAEMDREDAEHVKNSTYVALIIATDDGSPIATGTGTLLLVLLDVNDNAPIPEPRNMQFCQRNPQPHIITILDPDLPPNTSPFTAELTHGASVNWTIEYNDAAQESLILQPRKDLEIGEYKIHLKLADNQNKDQVTTLDVHVCDCEGTVNNCMKAGIVAAGLQV
